From patent US20260201008A1, “SECRETIN-DERIVED GLP1R SELECTIVE AGONISTS” (GUBRA A/S, priority 2023, published 2026)
Numbered stars: 1 amine (or outer) side, 2 acyl side, 3 side chain; on linkers, the order of the positions; unused ones are H or OH. Square brackets hold non-standard residues; d marks the D form. Side chains are listed from the residue outwards. Ends that are not written are not given here. * marks the point of attachment. C20 diacid = O=C(O)CCCCCCCCCCCCCCCCCCC(=O)*; γGlu = O=C(O)[C@H](CCC(=O)[*:2])N[*:1]; AEEA = NCCOCCOCC(=O)O; Aib = CC(C)(N)C(=O)O

B1: SEQ ID NO: 64 (peptide)
peptide: H[Aib]EGTFTSDVSRLK([AEEA-AEEA-γGlu-C20 diacid])E[Aib]AA[Aib]QRFLEHLV-NH2
B2: SEQ ID NO: 89 (peptide)
peptide: H[Aib]EGTFTSDVSTLK([AEEA-AEEA-γGlu-C20 diacid])EFAAEQRFLEHLV-NH2
B3: SEQ ID NO: 85 (peptide)
peptide: H[Aib]EGTFTSDVSRLK([AEEA-AEEA-γGlu-C20 diacid])ETAA[Aib]QRFLEHLV-NH2
B4: SEQ ID NO: 61 (peptide)
peptide: H[Aib]EGTFTSDVSYLK([AEEA-AEEA-γGlu-C20 diacid])EEAAAQRFLEHLV-NH2
B5: SEQ ID NO: 8 (peptide)
peptide: H[Aib]EGTFTSDVSELK([AEEA-AEEA-γGlu-C20 diacid])EFAASQRFLEHLV-NH2
B6: SEQ ID NO: 62 (peptide)
peptide: H[Aib]EGTFTSDVSVLK([AEEA-AEEA-γGlu-C20 diacid])ETAAAQRFLEHLV-NH2
B7: SEQ ID NO: 72 (peptide)
peptide: H[Aib]EGTFTSDVSRLK([AEEA-AEEA-γGlu-C20 diacid])EFAAEQRFLEHLV-NH2
B8: SEQ ID NO: 76 (peptide)
peptide: H[Aib]EGTFTSDVSYLK([AEEA-AEEA-γGlu-C20 diacid])EFAAQQRFLEHLV-NH2
B9: SEQ ID NO: 86 (peptide)
peptide: H[Aib]EGTFTSDVSYLK([AEEA-AEEA-γGlu-C20 diacid])ELAAAQRFLEHLV-NH2
B10: SEQ ID NO: 87 (peptide)
peptide: H[Aib]EGTFTSDVSELK([AEEA-AEEA-γGlu-C20 diacid])EEAASQRFLEHLV-NH2
B11: SEQ ID NO: 88 (peptide)
peptide: H[Aib]EGTFTSDVSTLK([AEEA-AEEA-γGlu-C20 diacid])E[Aib]AAQQRFLEHLV-NH2
B12: SEQ ID NO: 93 (peptide)
peptide: H[Aib]EGTFTSDVSTLK([AEEA-AEEA-γGlu-C20 diacid])ETAATQRFLEHLV-NH2
modifications: not fully specified
B13: SEQ ID NO: 91 (peptide)
peptide: H[Aib]EGTFTSDVSFLK([AEEA-AEEA-γGlu-C20 diacid])EFAASQRFLEHLV-NH2
B14: SEQ ID NO: 84 (peptide)
peptide: H[Aib]EGTFTSDVSFLK([AEEA-AEEA-γGlu-C20 diacid])EFAAAQRFLEHLV-NH2
B15: SEQ ID NO: 82 (peptide)
peptide: H[Aib]EGTFTSDVSELK([AEEA-AEEA-γGlu-C20 diacid])E[Aib]AATQRFLEHLV-NH2
B16: SEQ ID NO: 69 (peptide)
peptide: H[Aib]EGTFTSDVSYLK([AEEA-AEEA-γGlu-C20 diacid])ETAAEQRFLEHLV-NH2
B17: SEQ ID NO: 78 (peptide)
peptide: H[Aib]EGTFTSDVSTLK([AEEA-AEEA-γGlu-C20 diacid])ELAAEQRFLEHLV-NH2
B18: SEQ ID NO: 68 (peptide)
peptide: H[Aib]EGTFTSDVSRLK([AEEA-AEEA-γGlu-C20 diacid])EFAA[Aib]QRFLEHLV-NH2
B19: SEQ ID NO: 79 (peptide)
peptide: H[Aib]EGTFTSDVSTLK([AEEA-AEEA-γGlu-C20 diacid])ELAA[Aib]QRFLEHLV-NH2
B20: SEQ ID NO: 73 (peptide)
peptide: H[Aib]EGTFTSDVSRLK([AEEA-AEEA-γGlu-C20 diacid])EEAAQQRFLEHLV-NH2
B21: SEQ ID NO: 75 (peptide)
peptide: H[Aib]EGTFTSDVSYLK([AEEA-AEEA-γGlu-C20 diacid])EEAASQRFLEHLV-NH2
B22: SEQ ID NO: 81 (peptide)
peptide: H[Aib]EGTFTSDVSRLK([AEEA-AEEA-γGlu-C20 diacid])E[Aib]AAAQRFLEHLV-NH2
B23: SEQ ID NO: 60 (peptide)
peptide: H[Aib]EGTFTSDVSRLK([AEEA-AEEA-γGlu-C20 diacid])EEAAAQRFLEHLV-NH2
B24: SEQ ID NO: 77 (peptide)
peptide: H[Aib]EGTFTSDVSTLK([AEEA-AEEA-γGlu-C20 diacid])EEAA[Aib]QRFLEHLV-NH2
B25: SEQ ID NO: 57 (peptide)
peptide: H[Aib]EGTFTSDVSELK([AEEA-AEEA-γGlu-C20 diacid])ETAAAQRFLEHLV-NH2
B26: SEQ ID NO: 7 (peptide)
peptide: H[Aib]EGTFTSDVSELK([AEEA-AEEA-γGlu-C20 diacid])E[Aib]AA[Aib]QRFLEHLV-NH2
B27: SEQ ID NO: 92 (peptide)
peptide: H[Aib]EGTFTSDVSVLK([AEEA-AEEA-γGlu-C20 diacid])EFAASQRFLEHLV-NH2
B28: SEQ ID NO: 58 (peptide)
peptide: H[Aib]EGTFTSDVSYLK([AEEA-AEEA-γGlu-C20 diacid])ETAAQQRFLEHLV-NH2
B29: SEQ ID NO: 94 (peptide)
peptide: H[Aib]EGTFTSDVSYLKE[Aib]AAQQRFLEHLV-NH2
modifications: not fully specified (residue 14)
B30: SEQ ID NO: 74 (peptide)
peptide: H[Aib]EGTFTSDVSFLK([AEEA-AEEA-γGlu-C20 diacid])E[Aib]AASQRFLEHLV-NH2
B31: SEQ ID NO: 80 (peptide)
peptide: H[Aib]EGTFTSDVSELK([AEEA-AEEA-γGlu-C20 diacid])ELAATQRFLEHLV-NH2
B32: SEQ ID NO: 59 (peptide)
peptide: H[Aib]EGTFTSDVSRLK([AEEA-AEEA-γGlu-C20 diacid])E[Aib]AASQRFLEHLV-NH2
B33: SEQ ID NO: 90 (peptide)
peptide: H[Aib]EGTFTSDVSVLK([AEEA-AEEA-γGlu-C20 diacid])EEAAQQRFLEHLV-NH2
B34: SEQ ID NO: 71 (peptide)
peptide: H[Aib]EGTFTSDVSRLK([AEEA-AEEA-γGlu-C20 diacid])ETAASQRFLEHLV-NH2
B35: SEQ ID NO: 66 (peptide)
peptide: H[Aib]EGTFTSDVSYLK([AEEA-AEEA-γGlu-C20 diacid])EFAASQRFLEHLV-NH2
B36: SEQ ID NO: 67 (peptide)
peptide: H[Aib]EGTFTSDVSTLK([AEEA-AEEA-γGlu-C20 diacid])ELAATQRFLEHLV-NH2
B37: SEQ ID NO: 9 (peptide)
peptide: H[Aib]EGTFTSDVSRLK([AEEA-AEEA-γGlu-C20 diacid])ELAAAQRFLEHLV-NH2
B38: SEQ ID NO: 83 (peptide)
peptide: H[Aib]EGTFTSDVSFLK([AEEA-AEEA-γGlu-C20 diacid])EEAAQQRFLEHLV-NH2
B39: SEQ ID NO: 63 (peptide)
peptide: H[Aib]EGTFTSDVSFLK([AEEA-AEEA-γGlu-C20 diacid])EEAAAQRFLEHLV-NH2
B40: SEQ ID NO: 70 (peptide)
peptide: H[Aib]EGTFTSDVSFLK([AEEA-AEEA-γGlu-C20 diacid])ETAATQRFLEHLV-NH2
B41: SEQ ID NO: 65 (peptide)
peptide: H[Aib]EGTFTSDVSRLK([AEEA-AEEA-γGlu-C20 diacid])EEAATQRFLEHLV-NH2

The binders below were run against human GLP-1 receptor (hGLP1R) (human, UniProt P43220 24-463) (assay: cell-based or functional assay).
B1 was tested, and the “pEC50 hGLPR1” value was 10.2 -log M. B2 was tested, and the “pEC50 hGLPR1” value was 10.7 -log M. With B3 the “pEC50 hGLPR1” value was 9.9 -log M. For B4, the “pEC50 hGLPR1” value was 10.9 -log M. For B5, the “pEC50 hGLPR1” value was 10.3 -log M. With B6 the “pEC50 hGLPR1” value was 10 -log M. With B7 the “pEC50 hGLPR1” value was 10 -log M. For B8, the “pEC50 hGLPR1” value was 10.1 -log M. In the case of B9, the “pEC50 hGLPR1” value is reported as 9.7 -log M. For B10, the “pEC50 hGLPR1” value was 10.4 -log M. In the case of B11, the “pEC50 hGLPR1” value is reported as 11.4 -log M. In the case of B12, the “pEC50 hGLPR1” value is reported as 11 -log M. B13 was tested, and the “pEC50 hGLPR1” value was 9.5 -log M. For B14, the “pEC50 hGLPR1” value was 10.1 -log M. In the case of B15, the “pEC50 hGLPR1” value is reported as 11 -log M. With B16 the “pEC50 hGLPR1” value was 10.8 -log M. B17 was tested, and the “pEC50 hGLPR1” value was 10.3 -log M. B18 was tested, and the “pEC50 hGLPR1” value was 10 -log M. For B19, the “pEC50 hGLPR1” value was 10 -log M. For B20, the “pEC50 hGLPR1” value was 11.2 -log M. In the case of B21, the “pEC50 hGLPR1” value is reported as 10.6 -log M. In the case of B22, the “pEC50 hGLPR1” value is reported as 10.1 -log M. B23 was tested, and the “pEC50 hGLPR1” value was 10.5 -log M. For B24, the “pEC50 hGLPR1” value was 10.7 -log M. With B25 the “pEC50 hGLPR1” value was 10.6 -log M. For B26, the “pEC50 hGLPR1” value was 10.2 -log M. With B27 the “pEC50 hGLPR1” value was 10.1 -log M. In the case of B28, the “pEC50 hGLPR1” value is reported as 10.6 -log M. B29 was tested, and the “pEC50 hGLPR1” value was 11 -log M. With B30 the “pEC50 hGLPR1” value was 10.2 -log M. For B31, the “pEC50 hGLPR1” value was 10.7 -log M. For B32, the “pEC50 hGLPR1” value was 10.5 -log M. With B33 the “pEC50 hGLPR1” value was 10.5 -log M. In the case of B34, the “pEC50 hGLPR1” value is reported as 10.2 -log M. For B35, the “pEC50 hGLPR1” value was 10.4 -log M. For B36, the “pEC50 hGLPR1” value was 10.3 -log M. With B37 the “pEC50 hGLPR1” value was 10.2 -log M. For B38, the “pEC50 hGLPR1” value was 10.5 -log M. For B39, the “pEC50 hGLPR1” value was 10.3 -log M. B40 was tested, and the “pEC50 hGLPR1” value was 10.7 -log M. With B41 the “pEC50 hGLPR1” value was 11.5 -log M.

The binders below were run against human secretin receptor (hSCTR) (human, UniProt P47872 23-440) (assay: cell-based or functional assay).
human secretin receptor (hSCTR), sequence (P47872 23-440): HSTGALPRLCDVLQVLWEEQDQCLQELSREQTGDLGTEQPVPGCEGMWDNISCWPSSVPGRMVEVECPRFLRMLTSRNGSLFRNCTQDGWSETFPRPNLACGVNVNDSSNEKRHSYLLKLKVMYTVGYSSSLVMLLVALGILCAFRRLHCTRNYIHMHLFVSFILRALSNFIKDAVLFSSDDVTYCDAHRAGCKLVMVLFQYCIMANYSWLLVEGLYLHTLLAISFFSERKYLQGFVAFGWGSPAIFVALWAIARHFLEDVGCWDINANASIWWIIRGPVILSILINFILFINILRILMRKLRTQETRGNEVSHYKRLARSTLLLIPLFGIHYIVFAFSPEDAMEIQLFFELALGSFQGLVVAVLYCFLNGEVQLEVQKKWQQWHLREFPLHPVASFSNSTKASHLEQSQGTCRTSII
B1 was tested, and the “pEC50 hSCTR” value was 6.5 -log M. B2 was tested, and the “pEC50 hSCTR” value was 5.7 -log M. For B3, the “pEC50 hSCTR” value was 5.8 -log M. With B4 the “pEC50 hSCTR” value was 6.1 -log M. With B5 the “pEC50 hSCTR” value was 5.8 -log M. With B6 the “pEC50 hSCTR” value was 5.7 -log M. B7 was tested, and the “pEC50 hSCTR” value was 6 -log M. In the case of B8, the “pEC50 hSCTR” value is reported as 5 -log M. In the case of B9, the “pEC50 hSCTR” value is reported as 5.4 -log M. With B10 the “pEC50 hSCTR” value was 5.8 -log M. For B11, the “pEC50 hSCTR” value was 6.8 -log M. For B12, the “pEC50 hSCTR” value was 6.5 -log M. For B13, the “pEC50 hSCTR” value was 4.5 -log M. B14 was tested, and the “pEC50 hSCTR” value was 5.4 -log M. With B15 the “pEC50 hSCTR” value was 7 -log M. B16 was tested, and the “pEC50 hSCTR” value was 4.8 -log M. For B17, the “pEC50 hSCTR” value was 5.4 -log M. In the case of B18, the “pEC50 hSCTR” value is reported as 5.9 -log M. With B19 the “pEC50 hSCTR” value was 5.5 -log M. With B20 the “pEC50 hSCTR” value was 7.1 -log M. In the case of B21, the “pEC50 hSCTR” value is reported as 5.5 -log M. For B22, the “pEC50 hSCTR” value was 7.1 -log M. With B23 the “pEC50 hSCTR” value was 6.6 -log M. For B24, the “pEC50 hSCTR” value was 5.8 -log M. In the case of B25, the “pEC50 hSCTR” value is reported as 5.3 -log M. B26 was tested, and the “pEC50 hSCTR” value was 6 -log M. In the case of B27, the “pEC50 hSCTR” value is reported as 5.8 -log M. In the case of B28, the “pEC50 hSCTR” value is reported as 6 -log M. For B29, the “pEC50 hSCTR” value was 6 -log M. In the case of B30, the “pEC50 hSCTR” value is reported as 4.9 -log M. B31 was tested, and the “pEC50 hSCTR” value was 6.1 -log M. B32 was tested, and the “pEC50 hSCTR” value was 6.9 -log M. With B33 the “pEC50 hSCTR” value was 5.8 -log M. B34 was tested, and the “pEC50 hSCTR” value was 6 -log M. With B35 the “pEC50 hSCTR” value was 5.5 -log M. In the case of B36, the “pEC50 hSCTR” value is reported as 6.4 -log M. In the case of B37, the “pEC50 hSCTR” value is reported as 6 -log M. For B38, the “pEC50 hSCTR” value was 5.8 -log M. In the case of B39, the “pEC50 hSCTR” value is reported as 5 -log M. B40 was tested, and the “pEC50 hSCTR” value was 7 -log M. With B41 the “pEC50 hSCTR” value was 7.6 -log M.
